pKd: −log10 of the molar value.
Key:
Assay in all cases: ITC
[1] = biological target: histone H3(1-10) peptide (UniProt P68431)
[2] = biological target: H3(1-15)K4me3 peptide (UniProt P68431)
[3] = biological target: H3(1-15)T3ph peptide (UniProt P68431)
[4] = biological target: H3(1-10)R2me2a peptide (UniProt P68431)

Sequence of UHRF1 PHD finger (PHD_(UHRF1)) (Q96T88 298-367): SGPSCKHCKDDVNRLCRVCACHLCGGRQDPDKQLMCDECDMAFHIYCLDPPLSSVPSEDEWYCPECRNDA

“PHD_(UHRF1) D347A mutant (from UniProt Q96T88-2 311-380) (domain or fragment)” showed a pKd [1] of 4.02.

Work on “UHRF1 PHD finger (PHD_(UHRF1)) (from UniProt Q96T88-2 311-380) (domain or fragment)” yielded a pKd [2] of 5.14, a pKd [3] of under 3.30 and a pKd [4] of 4.35.

With “PHD_(UHRF1) D350A mutant (from UniProt Q96T88-2 311-380) (domain or fragment)” the pKd [1] was 4.33.

— publication PMC4691841
